According to PMC3538539, “Self-Interaction of Human Pex11pβ during Peroxisomal Growth and Division” (PLoS ONE, 2013):

Columns and labels:
[1] = target: the molecule itself; assay: cross-linking; COS-7 cells fixed with 4% para-formaldehyde 24 h after transfection, postfixation extraction with 0.2% Triton X-100 (or digitonin); extracts, pellets and unfixed lysates on SDS-PAGE, anti-Myc immunoblot
[2] = target: the molecule itself; assay: cross-linking; data not shown: para-formaldehyde fixation, postfixation Triton X-100 extraction, immunoblot

| Protein | stoichiometry N [1] | stoichiometry N [2] |
| --- | --- | --- |
| HsPex11pβ-Myc (natural protein, human, UniProt O96011 1-259, looked up, human Pex11pβ (HsPex11pβ), peroxisomal membrane protein 11B; also called Pex11pβ-Myc (WT); wild type Pex11pβ-Myc; source: COS-7, transfected; cross-linked in cells, then in detergent extract or lysate; not shown: Myc, C-terminal, kept) MDAWVRFSAQSQARERLCRAAQYACSLLGHALQRHGASPELQKQIRQLESHLSLGRKLLRLGNSADALESAKRAVHLSDVVLRFCITVSHLNRALYFACDNVLWAGKSGLAPRVDQEKWAQRSFRYYLFSLIMNLSRDAYEIRLLMEQESSACSRRLKGSGGGVPGGSETGGLGGPGTPGGGLPQLALKLRLQVLLLARVLRGHPPLLLDVVRNACDLFIPLDKLGLWRCGPGIVGLCGLVSSILSILTLIYPWLRLKP | 2 | – |
| Pex11pβ-Myc^C18S-C25S-C85S (natural protein, human, UniProt O96011 1-259, looked up, human Pex11pβ with the three N-terminal cysteines replaced by serine; also called triple mutant; source: COS-7, transfected; cross-linked in cells, then in Triton X-100 extract; not shown: Myc, C-terminal, kept) MDAWVRFSAQSQARERLSRAAQYASSLLGHALQRHGASPELQKQIRQLESHLSLGRKLLRLGNSADALESAKRAVHLSDVVLRFSITVSHLNRALYFACDNVLWAGKSGLAPRVDQEKWAQRSFRYYLFSLIMNLSRDAYEIRLLMEQESSACSRRLKGSGGGVPGGSETGGLGGPGTPGGGLPQLALKLRLQVLLLARVLRGHPPLLLDVVRNACDLFIPLDKLGLWRCGPGIVGLCGLVSSILSILTLIYPWLRLKP | – | 2 |
